Literature values in US6368617B1, “Dietary supplement” (Reliv' International, Inc., priority 2001, dated 2002).
Where two headings read alike, the source gives them in different places.

Substance	half-life (serum)	half-life (circulating)
IGF-1: growth-promoting metabolite of hGH, somatomedin C, commercially known as Insulin-like Growth Factor type 1	about 20 hours	–
Growth Hormone: endocrine hormone produced by the pituitary, also known as somatotropin	–	about 20 minutes
